Results: publication PMC10456876
Read-outs that look alike come from different tables or passages of the source.

Assays:
[1] = target: human telomeric nucleosome core particle (teloNCP) (human) (UniProt P68431); assay: cryo-EM structure; TRF1core-teloNCP complex from the glycerol gradient, cross-linked with 0.5 mM BS3; 2:1 complex at 2.7 Å, 4:1 complex at 6.7 Å (rigid-body docking)
[2] = target: human telomeric nucleosome core particle (teloNCP) (human) (UniProt P68431); assay: as above; remark: listed apart in the source
[3] = target: human telomeric nucleosome core particle (teloNCP), P68431;P62805;P04908;P06899; assay: EMSA; details: point at 200 nM TRF1core; triplicate; parent: est. 100; read off a plot

Sequence of wild-type MBP-tagged TRF1core (TRF1-TIN2-TPP1) (Q9BSI4 whole entry, looked up): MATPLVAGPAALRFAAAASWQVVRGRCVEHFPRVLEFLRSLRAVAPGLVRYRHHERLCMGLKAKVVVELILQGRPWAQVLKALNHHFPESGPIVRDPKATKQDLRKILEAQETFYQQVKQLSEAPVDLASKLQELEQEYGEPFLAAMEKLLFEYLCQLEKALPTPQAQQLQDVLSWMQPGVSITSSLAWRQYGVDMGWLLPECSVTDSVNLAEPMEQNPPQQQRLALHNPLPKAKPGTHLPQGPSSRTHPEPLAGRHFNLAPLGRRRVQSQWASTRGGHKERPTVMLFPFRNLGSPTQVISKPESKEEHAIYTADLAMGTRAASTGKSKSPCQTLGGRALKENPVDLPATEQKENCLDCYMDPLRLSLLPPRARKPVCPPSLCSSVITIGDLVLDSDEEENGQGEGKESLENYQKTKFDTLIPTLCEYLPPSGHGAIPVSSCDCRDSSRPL
Sequence of wild-type MBP-tagged TRF1core (TRF1-TIN2-TPP1) (P54274 whole entry, looked up, stated change not applied): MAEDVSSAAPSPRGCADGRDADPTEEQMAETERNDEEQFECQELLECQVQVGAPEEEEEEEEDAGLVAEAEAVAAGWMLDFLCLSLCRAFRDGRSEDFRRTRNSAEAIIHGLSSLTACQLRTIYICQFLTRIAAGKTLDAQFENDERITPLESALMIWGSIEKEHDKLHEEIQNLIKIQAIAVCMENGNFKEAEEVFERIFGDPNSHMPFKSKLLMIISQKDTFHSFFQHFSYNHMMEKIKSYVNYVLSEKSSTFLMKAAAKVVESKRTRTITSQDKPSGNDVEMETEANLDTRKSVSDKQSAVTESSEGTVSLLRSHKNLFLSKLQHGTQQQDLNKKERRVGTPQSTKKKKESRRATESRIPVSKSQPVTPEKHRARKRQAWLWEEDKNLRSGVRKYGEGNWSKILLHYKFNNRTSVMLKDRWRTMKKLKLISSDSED

Row | TRF1 Myb domains bound per teloNCP [1] | TRF1 Myb domains bound per teloNCP [2] | response [3] [% Bound] | Substance
1 | 2 | 4 |  | shelterin TRF1-TIN2-TPP1 subcomplex (TRF1core), untagged (from UniProt P54274 1-439; Q9BSI4 1-451)
2 |  |  | 17 | wild-type MBP-tagged TRF1core (TRF1-TIN2-TPP1) (from UniProt P54274;Q9BSI4) S434A; S435A; S437A
